Key:
[1] = target: T1, unmodified H3 peptide of the tryptophan fluorescence and NMR titration experiments; test: tryptophan fluorescence; conditions: chain shown with the change; H3 (1–12) peptide; triplicates
T1 chain: ARTKQTARKSTG

[2] = target: T2, H3K4ac peptide of the tryptophan fluorescence and NMR titration experiments; test: tryptophan fluorescence; conditions: chain shown with the change; H3K4ac (1–12) peptide; triplicates
T2 chain: ARTKQTAR

Kd [1]: 271 µM | Kd [2]: 294 µM
B1: ZZZ3 ZZ domain (aa 800–903), GST cleaved, Q8IYH5 F821A (protein)
chain: KLKKQKLQQMQAESGFVQHVGAKCDNCGIEPIQGVRWHCQDCPPEMSLDFCDSCSDCLHETDIHKEDHQLEPIYRSETFLDRDYCVSQGTSYNYLDPNYFPANR

— PMC6138639, “The ZZ-type zinc finger of ZZZ3 modulates the ATAC complex-mediated histone acetylation and gene activation” (Nature Communications, 2018)
